Experimental data: patent US20090087417A1, “METHODS FOR PROMOTING DOPAMINERGIC NEURONAL DEVELOPMENT BY USING NG4A-SUBFAMILY AND WNT-LIGANDS” (priority 2002, published 2009)

What was measured:
[1] = tested on: E14.5 ventral mesencephalic precursor cultures; assay: Number of TH+ neurons in E14.5 ventral mesencephalic precursor cultures; assay type: cell-based, rat; details: for increase in TH+ neurons: partially purified Wnts, compared to controls (FIG. 10A); for effects on TH+ cell numbers, time course: 10 units, 1, 3 and 7 days in vitro; for increases in TH+ cell numbers compared with GDNF, FGF-2 or FGF-8 / increases in TH+ cell numbers compared with VM T1A conditioned medium: after 3 days; for TH+ cell numbers: increasing concentrations of partially purified Wnt, 3 days
Experimental: (§1) Ventral mesencephala and cerebral cortices from embryos E13.5-14.5 obtained from timed-mated Sprague-Dawley rats were dissected, mechanically dissociated and plated at a final density of 1×10^5 cells/cm2 on poly-D-lysine coated 12- or 24-well plates in a defined, serum-free medium (N2, consisting of a 1:1 mixture of F12 and DMEM containing insulin (10 ng/ml), transferrin (100 μg/ml), putrescine (100 μM), progesterone (20 nM), selenium (30 nM), glucose (6 mg/ml), and bovine serum albumin (1 mg/ml)). Purified Type 1 astrocytes were obtained from mixed glial cultures derived from the VM or CTX of P1 rats according to a standard protocol (Wagner et al., 1999). After shaking and replating into 12-well plates, astrocytes were grown to confluency in 15% fetal bovine serum-containing media and changed to N2 medium, at which time freshly dissected VM or CTX cells were plated on top of the astrocytes at a density of 1×10^5 cells/cm2. All factors were added once, at the initiation of culture, with the exception of 5-bromodeoxyuridine (BrdU), which was added 4-6 hours prior to fixation. Cultures were maintained in a humidified 5% CO2, 95% air incubator at 37° C. and fixed after given time periods with 4% paraformaldehyde for 45 minutes prior to immunocytochemical analysis.
B1A fibroblast lines stably overexpressing hemagglutanin-tagged Wnt-1a, 3a, or 5a (Shimizu H., 1997) were grown in standard complete media (DMEM+10% FBS) supplemented with 100 ug/ml G-418. For collection of conditioned media, cells were replated at low density in complete media and allowed to reach 50-75% confluency, at which point cells were washed and media was replaced with serum-free N2 (with 10 μM sodium butyrate) for 24 hours. Conditioned media from sister flasks was then harvested, pooled as lots and stored at −80° C. for up to 2 months. When compared to fresh CM, no loss of activity was observed when using this collection and storage routine. T1A CM was harvested using a similar procedure, with the exception that media was collected after 3 days in vitro.
For concentration, individual lots of CM were thawed at room temperature, divided into 80 ml aliquots, loaded onto Centricon-Plus 80 columns (Millipore) and concentrated via centrifugation according to the manufacturers instructions. Following concentration, aliquots were re-pooled and frozen at −80 C after a sample was taken for determination of protein content and Western blot analysis. In brief, 20 ug of protein was loaded onto a 10% polyacrylamide mini-gel and run under denaturing conditions at 150 V for approximately 30 minutes. After dry electroblot transfer onto PVDF membranes (Hybond P, Amersham Pharmacia Biotech, Upsalla, Sweden) and pre-incubation for 30 minutes in a blocking buffer consisting of 3% bovine serum albumin in Tris-Buffered Saline with […] Triton-X 100 (TBST), blots were incubated with mouse anti-hemagglutinin (Babco) diluted 1:1000 in TBST overnight at 4 C. After washing, blots were incubated with alkaline phosphatase-coupled goat anti-mouse IgG (Santa Cruz) diluted 1:1000 in TBST for 1 hour at room temperature. Blots were visualized using the Amersham ECF reagent and blue fluorescence quantitated using a Molecular Devices Storm 840 phosphoimager.
B1A fibroblast lines were cotransfected with the mFz8CRD-IgG/pRK5 and the pIRES puro 2 (Clontech, BD Bioscience, Erembodegem, Belgium) plasmids, using Lipofectamine Plus reagent (Invitrogen, Lidingo, Sweden) according to the instruction of the manufacturer. Upon selection for puromycin resistance (1 μg/ml Sigma, Stockholm, Sweden), clones were isolated and expanded. A clone overexpressing Fz8CRD 700× (real time RT-PCR analysis) was identified. Harvesting and partial purification of Fz8CRD conditioned media were performed as described previously. In all the blocking experiments performed, the Fz8CRD and B1A control partial purified conditioned medias were used at a final concentration of 125-250 μg/ml. […]

[2] = tested on: VM precursor cultures / Nurr1+ precursor cells; assay: BrdU incorporation (proliferation) in VM precursor cultures; assay type: cell-based, rat; details: for BrdU incorporation in VM precursor cultures: 3 days in vitro; for increase in Nurr1 and BrdU double positive precursor cells (mitosis in Nurr1+ population): 1 day in vitro
Experimental: as §1
Fixed cultures were incubated with one of the following antibodies, diluted appropriately in phosphate-buffered saline (PBS) containing 1% bovine serum albumin and 0.3% Triton-X 100: mouse anti-BrdU, 1:50 (DAKO, Denmark), mouse anti-β-tubulin, Type III (TuJ1), 1:250 (Sigma), mouse anti-TH, 1:1000 (Incstar, USA), rabbit anti-TH, 1:250 (PelFreeze); rabbit anti-Nurr1, 1:2000 (gift from Dr. T. Perlmann, Sweden), rabbit anti-Nurr1, 1:1000 (Santa Cruz, USA) or mouse anti-Nurr1, 1:250 (BD Transduction Laboratories, USA), rabbit anti Adh2 1:4000 (gift from Dr. R. Lindahl, South Carolina). Incubations were either carried out at 4° C. overnight, or at room temperature for 1 hour. Both processes yielded similar results. After washing, cultures were incubated for 1-3 hr with appropriate secondary antibodies (biotinylated 1:500; CY2-, FITC-, or rhodamine-coupled horse-anti-mouse IgG 1:100; or goat-anti-rabbit IgG 1:100; all from Vector, USA), in the same dilution buffer. Brightfield immunostaining was visualized with the Vector Laboratory ABC immunoperoxidase kit, using either NovaRed (red), or AEC (red), SG or 3-3′ dimaminobenzidine tetrahydrochloride (DAB 0.5 mg/ml)/nickel chloride (1.6 mg/ml) (gray/black), or VIP (violet) substrates. Double-staining was performed by sequential single staining as described. The order of staining was only critical for BrdU-double labeling, in which case the BrdU procedure was always performed second. […] Photos were acquired with a Zeiss Axioplan 100M microscope and collected with a Hamamatsu camera C4742-95 (with the QED imaging software).
Only clearly stained cells were counted as positive cells. Spheres were considered positive if they contained one or more positive cell. Quantitative immunocytochemical data on individual cells represent means and standard errors of counts obtained by a blinded observer from 10-20 non-overlapping fields (cells) or in the entire well (clusters), in each of 3-4 wells per condition from 3-4 independent experiments, unless stated otherwise. For each variable, initial statistical comparisons were performed by a global ANOVA, with multiple factors of dose, time point, treatment and/or region; if significant interactions between treatment and any other variable existed, data were further divided into separate times, doses or regions. Fisher's protected least significant difference was used post hoc to identify specific points at which the treatments differed from controls (or each other) only when significant interactions between factor treatment and other variables occurred. Significance for all tests was assumed at the level of p<0.05. […]

Row | Molecule | increase in TH+ neurons [1] | BrdU incorporation in VM precursor cultures [2] | effects on TH+ cell numbers, time course [1] | increases in TH+ cell numbers compared with GDNF, FGF-2 or FGF-8 [1] | increases in TH+ cell numbers compared with VM T1A conditioned medium [1] | TH+ cell numbers [1] | increase in Nurr1 and BrdU double positive precursor cells (mitosis in Nurr1+ population) [2]
1 | Wnt-2: Partially purified / conditioned media from Wnt-2 overexpressing fibroblast cell line (protein, UniProt P21552 26-360, looked up, conditioned medium, Partially purified / conditioned media from Wnt-2 overexpressing fibroblast cell line) Protein Wnt-2: SWWYMRATGGSSRVMCDNVPGLVSRQRQLCHRHPDVMRAIGLGVAEWTAECQHQFRQHRWNCNTLDRDHSLFGRVLLRSSRESAFVYAISSAGVVFAITRACSQGELKSCSCDPKKKGSAKDSKGTFDWGGCSDNIDYGIKFARAFVDAKERKGKDARALMNLHNNRAGRKAVKRFLKQECKCHGVSGSCTLRTCWLAMADFRKTGDYLWRKYNGAIQVVMNQDGTGFTVANKRFKKPTKNDLVYFENSPDYCIRDREAGSLGTAGRVCNLTSRGMDSCEVMCCGRGYDTSHVTRMTKCECKFHWCCAVRCQDCLEALDVHTCKAPKSADWATPT | ~2 fold | slight decrease |  |  |  |  | 
2 | Wnt-7a: Partially purified / conditioned media from Wnt-7a overexpressing fibroblast cell line (protein, UniProt P24383 32-349, looked up, conditioned medium, Partially purified / conditioned media from Wnt-7a overexpressing fibroblast cell line) Protein Wnt-7a: LGASIICNKIPGLAPRQRAICQSRPDAIIVIGEGSQMGLDECQFQFRNGRWNCSALGERTVFGKELKVGSREAAFTYAIIAAGVAHAITAACTQGNLSDCGCDKEKQGQYHRDEGWKWGGCSADIRYGIGFAKVFVDAREIKQNARTLMNLHNNEAGRKILEENMKLECKCHGVSGSCTTKTCWTTLPQFRELGYVLKDKYNEAVHVEPVRASRNKRPTFLKIKKPLSYRKPMDTDLVYIEKSPNYCEEDPVTGSVGTQGRACNKTAPQASGCDLMCCGRGYNTHQYARVWQCNCKFHWCCYVKCNTCSERTEMYTCK | modest TH+ increases | BrdU+ increases similar to that of Wnt-1 |  |  |  |  | 
3 | Wnt-5a: Partially purified conditioned media from stable fibroblast cell line engineered to secrete Wnt-5a ligand (protein, left off: small tags and cut ends) IIGAQPLCSQLAGLSQGQKKLCHLYQDHMQYIGEGAKTGIKECQYQFRHRRWNCSTVDNTSVFGRVMQIGSRETAFTYAVSAAGVVNAMSRACREGELSTCGCSRAARPKDLPRDWLWGGCGDNIDYGYRFAKEFVDARERERIHAKGSYESARILMNLHNNEAGRRTVYNLADVACKCHGVSGSCSLKTCWLQLADFRKVGDALKEKYDSAAAMRLNSRGKLVQVNSRFNSPTTQDLVYIDPSPDYCVRNESTGSLGTQGRLCNKTSEGMDGCELMCCGRGYDQFKTVQTERCHCKFHWCCYVKCKKCTEIVDQFVCK |  | not | detected as early as after 1 day in vitro | exceeded increases produced by known dopaminotrophic molecules | roughly equaled | robust dose-response increases | two
4 | Wnt-1: Partially purified conditioned media from stable fibroblast cell line engineered to secrete Wnt-1 ligand (protein, left off: small tags and cut ends) ANSSGRWWGIVNIASSTNLLTDSKSLQLVLEPSLQLLSRKQRRLIRQNPGILHSVSGGLQSAVRECKWQFRNRRWNCPTAPGPHLFGKIVNRGCRETAFIFAITSAGVTHSVARSCSEGSIESCTCDYRRRGPGGPDWHWGGCSDNIDFGRLFGREFVDSGEKGRDLRFLMNLHNNEAGRTTVFSEMRQECKCHGMSGSCTVRTCWMRLPTLRAVGDVLRDRFDGASRVLYGNRGSNRASRAELLRLEPEDPAHKPPSPHDLVYFEKSPNFCTYSGRLGTAGTAGRACNSSSPALDGCELLCCGRGHRTRTQRVTERCNCTFHWCCHVSCRNCTHTRVLHECL |  | increased | detected as early as after 1 day in vitro | exceeded increases produced by known dopaminotrophic molecules | roughly equaled | robust dose-response increases | 3 fold
